T1: PIfXa (KPI A-k1, Kunitz protease inhibitor purified from potato tuber, Solanum tuberosum cv. Kuras; SEQ ID NO:1)
T1 sequence: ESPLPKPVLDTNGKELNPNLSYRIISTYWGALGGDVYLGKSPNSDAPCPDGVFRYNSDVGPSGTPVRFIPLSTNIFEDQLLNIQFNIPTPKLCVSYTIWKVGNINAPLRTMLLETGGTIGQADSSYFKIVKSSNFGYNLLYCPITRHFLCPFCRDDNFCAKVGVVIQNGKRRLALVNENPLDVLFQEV

T2: fraction B11SI (cation exchange fraction from potato juice; major inhibitor KPI A-k1, SEQ ID NO:1)
T2 sequence: T1 sequence

T3: factor Xa (fXa)
T3 chain 1: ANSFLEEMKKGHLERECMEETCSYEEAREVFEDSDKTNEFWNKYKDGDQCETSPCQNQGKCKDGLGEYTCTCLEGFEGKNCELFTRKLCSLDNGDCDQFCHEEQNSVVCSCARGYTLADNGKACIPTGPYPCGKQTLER
T3 chain 2: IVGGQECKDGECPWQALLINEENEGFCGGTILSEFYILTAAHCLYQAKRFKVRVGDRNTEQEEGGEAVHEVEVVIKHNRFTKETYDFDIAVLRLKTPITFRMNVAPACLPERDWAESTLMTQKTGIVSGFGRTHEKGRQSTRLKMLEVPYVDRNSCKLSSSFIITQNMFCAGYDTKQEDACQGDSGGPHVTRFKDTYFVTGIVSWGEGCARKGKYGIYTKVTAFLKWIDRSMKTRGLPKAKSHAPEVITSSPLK

B1: fraction B11SI (cation exchange fraction from potato juice; major inhibitor KPI A-k1, SEQ ID NO:1) (other)
chain: T1 sequence
notes: A chromatography fraction, not a pure protein; By nESI the highest peak is 20,830 Da (KPI A-k1 N-terminal variant 3), with further peaks for variants 4, 2 and 1; also called B1151

Tests used:
[1] = system: T1, PIfXa (KPI A-k1, Kunitz protease inhibitor purified from potato tuber, Solanum tuberosum cv. Kuras; SEQ ID NO:1)
[2] = system: T2, fraction B11SI (cation exchange fraction from potato juice; major inhibitor KPI A-k1, SEQ ID NO:1)
factor Xa (fXa) [3] = target: T3, factor Xa (fXa); test: amidolytic activity assay: chromozym t-PA hydrolysis by 50 nM fXa, competitive inhibition fit, in the presence of 1 U/mL heparin
factor Xa (fXa) [4] = target: T3, factor Xa (fXa); test: amidolytic activity assay: chromozym t-PA hydrolysis by 50 nM fXa, competitive inhibition fit (GraphPad Prism)

Row | Ki (factor Xa (fXa) [3]) [nM] | Ki (factor Xa (fXa) [4]) [nM] | Molecule | reaction rate of chromozym t-PA hydrolysis by 25 nM fXa with 100 µg/mL PIfXa, no antibody (Ctrl without PIfXa 19.2) [1] [µM/min] | reaction rate of chromozym t-PA hydrolysis by fXa with PIfXa, before addition of antibody (sample PlfXa 1:1) [1] [µM/min] | reaction rate of chromozym t-PA hydrolysis by fXa with PIfXa, before addition of antibody (sample PlfXa 1:2.5) [1] [µM/min] | reaction rate of chromozym t-PA hydrolysis by fXa with PIfXa, before addition of antibody (sample PlfXa 1:5) [1] [µM/min] | reaction rate of chromozym t-PA hydrolysis by fXa with PIfXa, before addition of antibody (sample PlfXa 1:10) [1] [µM/min] | KM of chromozym t-PA hydrolysis by fXa with B11SI (fXa alone 0.23) [2] [µM] | KM of chromozym t-PA hydrolysis by fXa with B11SI and heparin [2] [µM] | Vmax of chromozym t-PA hydrolysis by fXa with B11SI (fXa alone 8.8 · 10^-2) [2] [mM/min] | Vmax of chromozym t-PA hydrolysis by fXa with B11SI and heparin [2] [mM/min]
1 |  |  | factor Xa (fXa) | 2 | 2.1 | 2.1 | 2.2 | 1.4 | 1250 | 1180 | 0.026 | 0.023
2 | 101 | 114 | B1 |  |  |  |  |  |  |  |  | 
